B1: KCNA1 (parent)
chain: LKASMRELGLLIFFLFIGVILFSS

Variants of: B1
Experiment: protein stability index of a GFP-peptide fusion (GPS, HEK-293T) (PSI 1-6); higher = more stable
Details: c terminus: a fixed tail appended
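Note: lentivirally expressed fusions sorted by FACS into six bins by GFP to DsRed ratio, PSI derived from sequencing read proportions per bin multiplied by bin number.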

Protein stability index of substitutions, site by site:
R6: V 2.45 | D 3.02 | Y 3.07 | S 2.88 | N 2.85 | H 3.36 | M 3.15 | T 3.38 | K 1.61 | W 2.35 | P 2.36 | L 3.12 | A 3.59 | I 3.16 | G 2.63 | Q 2.28 | C 3.31
F16: T 2.77 | W 2.38 | S 2.55 | V 2.07 | L 2.91 | E 3.14 | P 2.96 | I 2.25 | A 2.14 | M 2.17 | Y 3.35 | D 1.64 | H 3.79 | G 3.06 | R 1.32 | K 2.35
E7: W 1.42 | K 2.21 | D 2.72 | Y 1.74 | S 1.88 | G 2.13 | L 2.16 | I 2.77 | H 2.29 | A 2.13 | V 1.99 | Q 1.68 | C 1.65 | F 1.84 | P 2.28 | N 1.55 | M 1.95 | R 2.07 | T 2.01
F13: S 3.56 | N 3.41 | D 3.37 | L 2.16 | Y 4.13 | E 2.6 | H 3.07 | A 1.57 | M 1.32 | R 2.03 | G 2.98 | I 1.77 | K 2.76 | Q 4.29 | P 3.61 | V 1.63
I12: H 3.35 | P 1.95 | E 3.27 | M 2.02 | K 2.8 | W 3.17 | Y 3.01 | D 2.94 | T 4.06 | L 2.86 | Q 2.17 | N 3.05 | A 1.87 | F 2.38 | C 2.52 | V 1.35 | S 1.31 | R 4.06 | G 3.16
L10: C 2.07 | V 1.23 | W 2.58 | Y 2.13 | M 3.58 | G 4.36 | R 2.83 | N 4.61 | I 2.42 | A 2.62 | S 2.77 | T 3.06 | H 3.23 | K 4 | P 2.75 | D 3.28 | F 2.27 | Q 2.94
V19: Y 1.86 | K 4.72 | L 1.59 | T 3.34 | S 3.99 | M 2.52 | H 4.02 | C 1.65 | G 2.85 | Q 3.09 | A 2.58 | N 2.33 | F 1.99 | W 2.1 | P 2.51 | D 2.65 | I 2.27 | R 2.66
I20: E 2.38 | A 3.3 | M 3.52 | F 2.32 | T 2.4 | L 1.96 | V 3.45 | D 3.22 | W 2.02 | C 2.75 | Q 2.9 | K 3.18 | Y 2.65 | S 2.1
F14: N 2.85 | E 2.74 | P 4.04 | G 3.88 | V 2.82 | D 2.93 | W 3.78 | R 2.41 | Y 3.01 | C 1.95 | K 2.65 | T 2.79 | H 3.41 | S 3.66 | M 2.48 | I 2.74 | L 2.98 | A 4.15
G9: L 1.83 | H 1.8 | C 1.29 | E 4.03 | P 3.05 | R 2.48 | V 1.71 | F 2.07 | W 1.54 | T 1.72 | M 2.37 | K 3 | Q 4.69 | A 1.75 | I 2.18 | S 1.98 | D 3.82 | Y 2.34
L15: S 2.67 | Y 2.55 | P 2.29 | A 2.44 | K 2.54 | F 1.79 | I 1.55 | M 1.7 | C 2.37 | W 2.7 | H 2.11 | R 2.01 | N 3.33 | T 3.59 | G 2.53
L8: A 2.58 | E 4 | M 2.26 | P 3.22 | F 2.39 | V 2.42 | S 2.08 | C 2.28 | T 2.48 | D 2.32 | G 1.65 | Q 2.55 | R 2.8 | K 2.58 | Y 2.58 | W 2.85 | I 2.27 | H 2.1
A3: C 1.92 | S 2.37 | H 2.89 | Q 2.12 | K 2.16 | I 1.53 | P 2.17 | W 2.14 | F 1.72 | G 1.65 | N 1.86 | D 2.46 | L 1.77 | M 1.58 | E 1.78 | Y 2.06 | T 2.12 | V 1.67 | R 1.74
I17: S 2.3 | Y 2.24 | L 1.95 | P 2.77 | A 2.83 | D 2.29 | T 2.48 | C 2.56 | R 2.71 | K 2.83 | W 3.85 | Q 2.82 | E 1.91 | G 2.88 | H 2.85 | V 2.74 | M 3.35 | F 2.79 | N 4.03
F22: D 2.83 | G 1.81 | H 3.76 | E 2.63 | A 2.33
G18: C 3.63 | A 1.77 | W 2.21 | K 2.44 | S 3.74 | M 2.2 | D 1.87 | T 3.2 | N 3.02 | Y 3.18 | Q 2.75 | V 3.15 | P 1.86 | I 4.5 | F 3.9 | L 1.82
L21: Y 1.91 | I 2.17 | W 2.35 | S 3.5 | N 2.64 | H 2.98 | Q 3.29 | M 2.32 | V 2.12 | P 2.86 | F 3.04 | R 3.21 | T 2.68 | C 2.43 | D 3.39 | K 1.88 | G 3.19
S4: V 2.65 | T 2.46 | M 1.97 | Y 2.17 | A 3.21 | W 1.55 | G 1.91 | N 2.31 | D 3.58 | E 3.02 | R 2.09 | I 1.69 | H 2.07 | P 3.03 | K 1.62 | C 2.87 | F 2.15 | Q 2.55 | L 4.39
L11: Y 3.48 | E 2.36 | K 3.54 | W 2.73 | V 1.61 | D 3.53 | M 1.73 | G 3.63 | T 4.58 | P 1.89 | I 2.49 | H 2.95 | F 1.74 | C 4.25 | A 3.12 | R 3.65
M5: W 1.78 | V 2.79 | K 1.94 | G 1.28 | I 2.19 | T 2.21 | F 1.98 | N 2.51 | S 2.33 | Y 2.42 | L 1.82 | A 3.19 | P 3.22 | R 1.76 | Q 3.33 | D 2.29 | C 2.92

Reference: the supplement of paper PMC10567573
